Measurements from publication PMC11257983 (2024).

B1: Flag-CNK^2–549 [Drosophila] / GST-HYP [Drosophila] (parent complex)
chain 1: AYINIAEWTPDQVTDWIKGLDESMKGYLYEFSKQEIGGRALLNIRPYELENLGMLRIGHQEIVLEAVENLRNFHYHLKNDNLQFMALHVATAAKNLHRELARNHAESTKIDTRILHDITRTIATLKPLVGSLERTPFRKQEMYREYCGNVLKCGLELATIAHRDRFALQPVPAIRQSAERLENLANFVIQDISDPMVLQPASLNLVTLKKRESELGFNIESSYNGIHRVTDIKYNSPAHNSGKIEDGDEIVQINYQTVVGWQHRTVLEHLREALPDVVLTVKKRPKHTKMFGQIYMQPYRLPSKKRNMAARWAAQMPSPRAAFLTLDTEQLATGGTGSAVPDPSKSLSSEKREVLTKANPVSSASDSDSSCSDIPTPTDPKLAAREIRLYYPKPRALLQRRNTICGCEYLSLKNSDLVVPSWHERKPGIGSPTNCDPGSPSIRDKSISFGYGLEMAARPTTCIGIAGDTSTDKARRMFHEARKLKQLTEDSQREFLVDRYKPGVSKVVRFDAKEDYVMKNEKFICNVENTILETFEPIPFADEGDEDA
chain 2: MGEETINSTQNKTRTKTTRPKAVYLWTVSDVLKWYRRHCGEYTQYEQLFAQHDITGRALLRITDSSLQRMGVTDNRDREAIWREIVKQRLKTDIMEIRDMERLNIY

Variants of: B1
Experiment: GST pull-down, immunoblot quantification; S2 cells; only GST-HYP and Flag-CNK2–549 co-expressed; anti-Flag blot; parent: 1

Row | ratio to parent | Variant
1 | 0.17 | chain 1 AYINIAEWTPDQVTDWIKGLDESMKGYLYEFSKQEIGGRALLNIRPYELENLGMLRIGHQEIVLEAVENLRNFHYHLKNDNLQFMALHVATAAKNLHRELARNHAESTKIDTRILHDITRTDATLKPLVGSLERTPFRKQEMYREYCGNVLKCGLELATIAHRDRFALQPVPAIRQSAERLENLANFVIQDISDPMVLQPASLNLVTLKKRESELGFNIESSYNGIHRVTDIKYNSPAHNSGKIEDGDEIVQINYQTVVGWQHRTVLEHLREALPDVVLTVKKRPKHTKMFGQIYMQPYRLPSKKRNMAARWAAQMPSPRAAFLTLDTEQLATGGTGSAVPDPSKSLSSEKREVLTKANPVSSASDSDSSCSDIPTPTDPKLAAREIRLYYPKPRALLQRRNTICGCEYLSLKNSDLVVPSWHERKPGIGSPTNCDPGSPSIRDKSISFGYGLEMAARPTTCIGIAGDTSTDKARRMFHEARKLKQLTEDSQREFLVDRYKPGVSKVVRFDAKEDYVMKNEKFICNVENTILETFEPIPFADEGDEDA [chain 1 I122D]

Variants of: B1
Experiment: GST pull-down, immunoblot quantification; S2 cells; GST-HYP, Flag-CNK2–549 + RRKM co-expressed; anti-Flag (CNK) blot; parent: 1

Row | ratio to parent | Variant
2 | 0.63 | chain 1 AYINIAEWTPDQVTDWIKGLDESMKGYLYEFSKQEIGGRALLNIRPYELENLGMLRIGHQEIVLEAVENLRNFHYHLKNDNLQFMALHVATAAKNLHRELARNHAESTKIDTRILHDITRTDATLKPLVGSLERTPFRKQEMYREYCGNVLKCGLELATIAHRDRFALQPVPAIRQSAERLENLANFVIQDISDPMVLQPASLNLVTLKKRESELGFNIESSYNGIHRVTDIKYNSPAHNSGKIEDGDEIVQINYQTVVGWQHRTVLEHLREALPDVVLTVKKRPKHTKMFGQIYMQPYRLPSKKRNMAARWAAQMPSPRAAFLTLDTEQLATGGTGSAVPDPSKSLSSEKREVLTKANPVSSASDSDSSCSDIPTPTDPKLAAREIRLYYPKPRALLQRRNTICGCEYLSLKNSDLVVPSWHERKPGIGSPTNCDPGSPSIRDKSISFGYGLEMAARPTTCIGIAGDTSTDKARRMFHEARKLKQLTEDSQREFLVDRYKPGVSKVVRFDAKEDYVMKNEKFICNVENTILETFEPIPFADEGDEDA [chain 1 I122D]

Variants of: B1
Experiment: GST pull-down, immunoblot quantification; S2 cells; GST-HYP + RRKM co-expressed; anti-Flag (CNK) blot; parent: 1

Row | ratio to parent | Variant
3 | 0.84 | chain 1 AYINIAEWTPDQVTDWIKGLDESMKGYLYEFSKQEIGGRALLNIRPYELENLGMLRIGHQEIVLEAVENLRNFHYHLKNDNLQFMALHVATAAKNLHRELARNHAESTKIDTRILHDITRTIATLKPLVGSLERTPFRKQEMYREYCGNVLKCGLELATIAHRDRFALQPVPAIRQSAERLENLANFVIQDISDPMVLQPASLNLVTLKKRESELGFNIESSYNGIHRVTDIKYNSPAHNSGKIEDGDRIVQINYQTVVGWQHRTVLEHLREALPDVVLTVKKRPKHTKMFGQIYMQPYRLPSKKRNMAARWAAQMPSPRAAFLTLDTEQLATGGTGSAVPDPSKSLSSEKREVLTKANPVSSASDSDSSCSDIPTPTDPKLAAREIRLYYPKPRALLQRRNTICGCEYLSLKNSDLVVPSWHERKPGIGSPTNCDPGSPSIRDKSISFGYGLEMAARPTTCIGIAGDTSTDKARRMFHEARKLKQLTEDSQREFLVDRYKPGVSKVVRFDAKEDYVMKNEKFICNVENTILETFEPIPFADEGDEDA [chain 1 E249R]
4 | 0.94 | chain 1 AYINIAEWTPDQVTDWIKGLDESMKGYLYEFSKQEIGGRALLNIRPYELENLGMLRIGHQEIVLEAVENLRNRHYHLKNDNLQFMALHVATAAKNLHRELARNHAESTKIDTRILHDITRTIATLKPLVGSLERTPFRKQEMYREYCGNVLKCGLELATIAHRDRFALQPVPAIRQSAERLENLANFVIQDISDPMVLQPASLNLVTLKKRESELGFNIESSYNGIHRVTDIKYNSPAHNSGKIEDGDEIVQINYQTVVGWQHRTVLEHLREALPDVVLTVKKRPKHTKMFGQIYMQPYRLPSKKRNMAARWAAQMPSPRAAFLTLDTEQLATGGTGSAVPDPSKSLSSEKREVLTKANPVSSASDSDSSCSDIPTPTDPKLAAREIRLYYPKPRALLQRRNTICGCEYLSLKNSDLVVPSWHERKPGIGSPTNCDPGSPSIRDKSISFGYGLEMAARPTTCIGIAGDTSTDKARRMFHEARKLKQLTEDSQREFLVDRYKPGVSKVVRFDAKEDYVMKNEKFICNVENTILETFEPIPFADEGDEDA [chain 1 F73R]

Variants of: B1
Experiment: GST pull-down, immunoblot quantification; S2 cells; only Flag-CNK2–549 and GST-HYP co-expressed; anti-Flag blot; parent: 1

Row | ratio to parent | Variant
5 | 0.75 | chain 1 AYINIAEWTPDQVTDWIKGLDESMKGYLYEFSKQEIGGRALLNIRPYELENLGMLRIGHQEIVLEAVENLRNFHYHLKNDNLQFMALHVATAAKNLHRELARNHAESTKIDTRILHDITRTIATLKPLVGSLERTPFRKQEMYREYCGNVLKCGLELATIAHRDRFALQPVPAIRQSAERLENLANFVIQDISDPMVLQPASLNLVTLKKRESELGFNIESSYNGIHRVTDIKYNSPAHNSGKIEDGDRIVQINYQTVVGWQHRTVLEHLREALPDVVLTVKKRPKHTKMFGQIYMQPYRLPSKKRNMAARWAAQMPSPRAAFLTLDTEQLATGGTGSAVPDPSKSLSSEKREVLTKANPVSSASDSDSSCSDIPTPTDPKLAAREIRLYYPKPRALLQRRNTICGCEYLSLKNSDLVVPSWHERKPGIGSPTNCDPGSPSIRDKSISFGYGLEMAARPTTCIGIAGDTSTDKARRMFHEARKLKQLTEDSQREFLVDRYKPGVSKVVRFDAKEDYVMKNEKFICNVENTILETFEPIPFADEGDEDA [chain 1 E249R]
6 | 0.91 | chain 1 AYINIAEWTPDQVTDWIKGLDESMKGYLYEFSKQEIGGRALLNIRPYELENLGMLRIGHQEIVLEAVENLRNRHYHLKNDNLQFMALHVATAAKNLHRELARNHAESTKIDTRILHDITRTIATLKPLVGSLERTPFRKQEMYREYCGNVLKCGLELATIAHRDRFALQPVPAIRQSAERLENLANFVIQDISDPMVLQPASLNLVTLKKRESELGFNIESSYNGIHRVTDIKYNSPAHNSGKIEDGDEIVQINYQTVVGWQHRTVLEHLREALPDVVLTVKKRPKHTKMFGQIYMQPYRLPSKKRNMAARWAAQMPSPRAAFLTLDTEQLATGGTGSAVPDPSKSLSSEKREVLTKANPVSSASDSDSSCSDIPTPTDPKLAAREIRLYYPKPRALLQRRNTICGCEYLSLKNSDLVVPSWHERKPGIGSPTNCDPGSPSIRDKSISFGYGLEMAARPTTCIGIAGDTSTDKARRMFHEARKLKQLTEDSQREFLVDRYKPGVSKVVRFDAKEDYVMKNEKFICNVENTILETFEPIPFADEGDEDA [chain 1 F73R]
